Test results published in patent US20060234285A1 (Human Genome Sciences, published 2006).

Tests used:
Experiment in all cases: flow cytometry on transiently transfected cells
[1] = target: T1, TNFR2, on transiently transfected cells (UniProt P20333 23-461, limits assumed)
T1 construct: whole, on cells
T1 sequence (looked up): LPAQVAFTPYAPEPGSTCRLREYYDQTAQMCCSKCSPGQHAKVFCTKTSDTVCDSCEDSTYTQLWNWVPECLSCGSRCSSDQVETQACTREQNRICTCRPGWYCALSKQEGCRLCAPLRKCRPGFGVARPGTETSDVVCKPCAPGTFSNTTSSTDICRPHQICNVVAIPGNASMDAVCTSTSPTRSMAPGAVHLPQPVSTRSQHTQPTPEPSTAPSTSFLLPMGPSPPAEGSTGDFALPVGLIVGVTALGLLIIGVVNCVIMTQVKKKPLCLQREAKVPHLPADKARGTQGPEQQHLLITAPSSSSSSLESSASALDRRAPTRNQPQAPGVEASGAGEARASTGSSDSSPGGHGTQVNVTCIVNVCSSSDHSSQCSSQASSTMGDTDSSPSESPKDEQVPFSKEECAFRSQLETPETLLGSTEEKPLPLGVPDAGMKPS
Procedure: (§1) One million cells, in 0.1 ml of FACS buffer (PBS, 0.1% BSA, 0.1% NaN₃), were incubated with 0.1-1 microgram of protein or antibody at RT for 15 min. The cells were washed with 3 ml of FACS buffer, reacted with biotinylated primary antibody, and stained with PE-conjugated secondary antibody at RT for 15 min. Cells were then washed again, resuspended in 0.5 microgram/ml of propidium iodide, and live cells were gated and analyzed on a FACScan using the CellQuest software (BD Biosciences).

[2] = target: T2, 4-1BB, on transiently transfected cells (UniProt Q07011 24-255)
T2 construct: whole, on cells
Procedure: as §1

[3] = target: T3, CD27, on transiently transfected cells (UniProt P26842 20-260, limits assumed)
T3 construct: whole, on cells
T3 sequence (looked up): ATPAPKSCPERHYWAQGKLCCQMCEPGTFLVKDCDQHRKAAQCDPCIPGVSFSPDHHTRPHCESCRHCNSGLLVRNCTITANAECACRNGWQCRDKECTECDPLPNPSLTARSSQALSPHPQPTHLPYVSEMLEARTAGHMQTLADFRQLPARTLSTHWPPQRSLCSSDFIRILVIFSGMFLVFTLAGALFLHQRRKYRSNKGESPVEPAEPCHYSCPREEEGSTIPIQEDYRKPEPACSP
Procedure: as §1

[4] = target: T4, DR6, on transiently transfected cells (UniProt O75509 42-655, limits assumed)
T4 construct: whole, on cells
T4 sequence (looked up): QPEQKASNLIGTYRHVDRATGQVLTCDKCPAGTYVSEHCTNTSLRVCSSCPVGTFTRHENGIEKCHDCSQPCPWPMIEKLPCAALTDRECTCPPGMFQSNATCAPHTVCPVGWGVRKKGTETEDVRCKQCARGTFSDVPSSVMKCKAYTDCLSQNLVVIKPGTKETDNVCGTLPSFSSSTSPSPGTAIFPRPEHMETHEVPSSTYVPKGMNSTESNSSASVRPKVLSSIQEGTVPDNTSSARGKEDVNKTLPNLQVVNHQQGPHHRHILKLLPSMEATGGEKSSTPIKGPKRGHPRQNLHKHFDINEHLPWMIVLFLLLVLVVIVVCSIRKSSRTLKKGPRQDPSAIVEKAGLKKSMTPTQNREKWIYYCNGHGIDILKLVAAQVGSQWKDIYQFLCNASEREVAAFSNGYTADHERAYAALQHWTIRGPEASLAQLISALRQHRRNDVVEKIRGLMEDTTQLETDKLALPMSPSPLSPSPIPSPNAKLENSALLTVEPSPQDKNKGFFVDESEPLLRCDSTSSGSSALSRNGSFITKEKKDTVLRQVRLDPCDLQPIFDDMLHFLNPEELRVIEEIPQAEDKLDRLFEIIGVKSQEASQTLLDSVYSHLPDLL
Procedure: as §1

[5] = target: T5, RANK, on transiently transfected cells (UniProt Q9Y6Q6 30-616, limits assumed)
T5 construct: whole, on cells
T5 sequence (looked up): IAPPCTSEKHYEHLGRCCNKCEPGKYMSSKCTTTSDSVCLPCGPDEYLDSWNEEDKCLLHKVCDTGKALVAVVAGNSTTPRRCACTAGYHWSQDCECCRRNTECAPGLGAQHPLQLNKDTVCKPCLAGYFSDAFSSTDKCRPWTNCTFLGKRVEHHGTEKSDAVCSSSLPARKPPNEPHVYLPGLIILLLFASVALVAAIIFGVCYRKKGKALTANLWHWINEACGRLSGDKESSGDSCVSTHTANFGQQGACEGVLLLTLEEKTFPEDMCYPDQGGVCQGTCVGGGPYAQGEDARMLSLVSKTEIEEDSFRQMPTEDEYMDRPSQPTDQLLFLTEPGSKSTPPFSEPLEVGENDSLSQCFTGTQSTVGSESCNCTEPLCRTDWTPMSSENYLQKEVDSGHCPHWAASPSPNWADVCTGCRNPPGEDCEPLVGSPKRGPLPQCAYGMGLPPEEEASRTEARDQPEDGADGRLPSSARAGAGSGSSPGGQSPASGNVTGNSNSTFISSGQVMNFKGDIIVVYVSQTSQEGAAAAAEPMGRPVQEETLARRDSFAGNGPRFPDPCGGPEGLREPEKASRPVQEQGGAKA
Procedure: as §1

[6] = target: T6, AITR, on transiently transfected cells (UniProt Q9Y5U5 26-241, limits assumed)
T6 construct: whole, on cells
T6 sequence (looked up): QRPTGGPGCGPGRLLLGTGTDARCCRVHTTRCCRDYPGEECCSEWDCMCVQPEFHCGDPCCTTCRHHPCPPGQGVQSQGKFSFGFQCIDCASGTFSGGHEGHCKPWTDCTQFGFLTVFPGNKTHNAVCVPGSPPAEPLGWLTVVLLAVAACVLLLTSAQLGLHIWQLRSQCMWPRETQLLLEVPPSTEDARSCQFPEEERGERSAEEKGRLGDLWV
Procedure: as §1

Measured: binding result

T2 sequence (Q07011 24-255): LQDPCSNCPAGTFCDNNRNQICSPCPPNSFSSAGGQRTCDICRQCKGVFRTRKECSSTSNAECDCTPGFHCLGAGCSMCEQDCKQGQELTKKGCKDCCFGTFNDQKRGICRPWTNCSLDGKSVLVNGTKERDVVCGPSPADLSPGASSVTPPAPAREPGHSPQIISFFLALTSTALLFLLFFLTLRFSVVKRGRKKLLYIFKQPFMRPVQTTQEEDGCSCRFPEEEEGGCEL

B1: FLAG-tagged soluble form of TNF-gamma-beta (aa 72-251) (ligand, human, UniProt O95150 72-251, looked up, not shown: small tags and cut ends)
chain: LKGQEFAPSHQQVYAPLRADGDKPRAHLTVVRQTPTQHFKNQFPALHWEHELGLAFTKNRMNYTNKFLLIPESGDYFIYSQVTFRGMTSECSEIRQAGRPNKPDSITVVITKVTDSYPEPTQLLMGTKSVCEVGSNWFQPIYLGAMFSLQEGDKLMVNVSDISLVDYTKEDKTFFGAFLL
notes: also called FLAG-TL1β; FLAG-TNF-gamma-beta
no binding: all assays above
